Legend:
[1] = target: T1, cyno CD73, Sino Biological Inc Cat#90192-C08H, bound to his-tag magnet beads (cynomolgus, UniProt P21589 27-547 (human entry)); test: cell-based or functional assay
T1 chain: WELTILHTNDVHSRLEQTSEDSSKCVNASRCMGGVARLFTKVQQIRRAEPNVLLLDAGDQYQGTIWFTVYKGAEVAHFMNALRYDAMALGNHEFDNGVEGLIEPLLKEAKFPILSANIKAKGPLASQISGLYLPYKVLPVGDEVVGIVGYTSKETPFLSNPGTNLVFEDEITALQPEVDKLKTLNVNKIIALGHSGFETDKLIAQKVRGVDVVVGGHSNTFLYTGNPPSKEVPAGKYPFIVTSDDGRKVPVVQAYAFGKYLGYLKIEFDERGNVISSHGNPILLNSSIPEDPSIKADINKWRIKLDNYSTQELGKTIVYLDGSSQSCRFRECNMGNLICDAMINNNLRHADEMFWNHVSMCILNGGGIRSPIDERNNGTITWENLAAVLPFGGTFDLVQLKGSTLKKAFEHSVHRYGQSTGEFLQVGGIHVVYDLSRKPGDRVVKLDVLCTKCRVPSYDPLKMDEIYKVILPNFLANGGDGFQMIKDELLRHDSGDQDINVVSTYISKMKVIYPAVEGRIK

[2] = target: T2, cynomolgus CD73 on transfected CHO cells (cynomolgus, UniProt P21589 27-549 (human entry)); test: flow cytometry, CHO-cynoCD73 cells
T2 construct: also called CHO-cynoCD73; CHO-Cynomolgus CD73 transfectants
T2 chain: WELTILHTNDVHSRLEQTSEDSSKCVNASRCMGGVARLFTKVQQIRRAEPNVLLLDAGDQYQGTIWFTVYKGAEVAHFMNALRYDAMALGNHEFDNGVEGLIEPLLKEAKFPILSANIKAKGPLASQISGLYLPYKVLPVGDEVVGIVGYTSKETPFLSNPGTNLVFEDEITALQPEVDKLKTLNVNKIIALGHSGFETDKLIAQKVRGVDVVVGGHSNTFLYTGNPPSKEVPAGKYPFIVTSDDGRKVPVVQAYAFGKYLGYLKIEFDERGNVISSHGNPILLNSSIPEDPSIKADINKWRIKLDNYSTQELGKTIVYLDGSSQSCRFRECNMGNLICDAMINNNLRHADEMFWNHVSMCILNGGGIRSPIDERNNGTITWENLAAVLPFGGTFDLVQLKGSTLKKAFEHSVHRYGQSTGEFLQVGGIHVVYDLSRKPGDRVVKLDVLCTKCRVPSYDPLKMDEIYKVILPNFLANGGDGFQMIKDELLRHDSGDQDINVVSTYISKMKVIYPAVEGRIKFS
Experimental: Titration binding curves were produced with CD73 antibodies on Calu6 (CD73 endogenous expressors; human pulmonary adenocarcinoma cell line), DMS114 (CD73 negative; human small cell lung cancer cell line), CHO-cynoCD73 (cynoCD73-transfected) and CHO-K1 (cynoCD73 negative), cells using Alexa Fluor® 647 Goat Anti-Human IgG (H+L) as a secondary antibody, Invitrogen Cat#A-21445, using the following method: 100000 cells were plated in 100 uL PBS+2% FBS per well and blocked for 20 min. Using a U-bottom 96-deep well plate, volumes of antibody and PBS+2% FBS were combined as dictated by Table 12 below.
An 8-point serial dilution was performed by diluting a sixth of the volume (90 uL) into […], PBS+2% FBS. The cell plate was spun down for 5 minutes at 1500 rpm. 100 uL of diluted antibody was added per well of the plate. 100 uL PBS+2% FBS were added to all other wells. […] The plates were spun down at 1500 rpm for 5 min and washed in 200 uL PBS+2% FBS per well. The plates were washed again, resuspended in 200 uL 2% FBS in PBS per well and the samples were run.

human CD73 on cells = target: T3, human CD73 on cells (human, UniProt P21589 27-549); test: cell-based or functional assay
T3 sequence: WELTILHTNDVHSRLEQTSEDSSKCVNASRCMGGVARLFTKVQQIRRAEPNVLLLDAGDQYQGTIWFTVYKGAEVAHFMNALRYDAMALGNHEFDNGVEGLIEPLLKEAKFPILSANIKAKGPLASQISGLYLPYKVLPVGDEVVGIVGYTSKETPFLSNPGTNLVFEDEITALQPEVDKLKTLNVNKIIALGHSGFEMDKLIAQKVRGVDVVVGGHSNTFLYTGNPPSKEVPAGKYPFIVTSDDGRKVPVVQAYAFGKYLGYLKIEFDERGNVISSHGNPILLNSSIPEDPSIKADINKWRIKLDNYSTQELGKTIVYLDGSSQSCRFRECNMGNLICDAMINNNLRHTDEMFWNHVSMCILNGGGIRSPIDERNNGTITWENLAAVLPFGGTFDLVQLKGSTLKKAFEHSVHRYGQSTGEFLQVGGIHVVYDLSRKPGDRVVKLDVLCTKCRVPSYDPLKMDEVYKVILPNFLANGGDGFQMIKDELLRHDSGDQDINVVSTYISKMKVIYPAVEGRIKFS

[3] = target: T4, N-hCD73-his (N-terminal domain of human CD73, residues 26-336, His tag) (human, UniProt P21589 26-336); test: SPR, comparison of all IgG2 molecules
T4 sequence: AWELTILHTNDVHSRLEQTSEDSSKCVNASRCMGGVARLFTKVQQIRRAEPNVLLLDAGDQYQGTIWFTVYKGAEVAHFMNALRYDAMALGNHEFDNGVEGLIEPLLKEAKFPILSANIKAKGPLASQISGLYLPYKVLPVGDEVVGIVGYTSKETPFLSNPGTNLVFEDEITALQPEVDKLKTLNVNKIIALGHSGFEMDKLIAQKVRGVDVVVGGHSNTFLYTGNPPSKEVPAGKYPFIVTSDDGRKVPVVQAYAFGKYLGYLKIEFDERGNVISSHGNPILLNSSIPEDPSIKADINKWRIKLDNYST
Experimental: For these experiments, protein A (Pierce) was immobilized to a density of 3000-4000 RU on flow cells 1-4 of a CM5 sensor chip (GE Healthcare) using standard ethyl(dimethylaminopropyl) carbodiimide (EDC)/N-hydroxysuccinimide […] chemistry, with ethanolamine blocking, in a running buffer of 0.01 M HEPES pH 7.4, 0.15 M NaCl, 3 mM EDTA, 0.005% v/v tween 20. […] The running buffer for the kinetic experiments was 10 mM sodium phosphate, 130 mM sodium chloride, 0.05% tween 20, pH 7.1. The surfaces were regenerated after each cycle using two 30 s pulses of 10 mM glycine pH 1.5 at a flow rate of 30 μl/min. Sensogram data was double-referenced and then fitted to a 1:1 Langmuir model using Biacore T100 evaluation software v2.0.4, to determine the association rate constant (ka), the dissociation rate constant (kd), and the equilibrium dissociation constant (KD).

[4] = target: T4, N-hCD73-his (N-terminal domain of human …); test: SPR

Binder	EC50 (nM), enzymatic inhibition of cyno CD73 (bead-bound) [1] [nM]	EC50 [2] [nM]	EC50 (nM), high-content internalization assay, Calu6, 2 h (human CD73 on cells) [nM]	Ymax, high-content internalization assay (percent of 100 nM 11F11) (human CD73 on cells) [%]	fold lower affinity than 11F11 or CD73.4 [3] [fold]	Kd [4] [nM]
CD73.10-IgG2-C219S-IgG1.1f (antibody, also called CD73.10-IgG2CS-IgG1.1f; CD73.10-IgG2S-IgG1.1f) heavy: QVQLVESGGGVVQPGRSLRLSCAASGFTFSNYGMHWVRQAPGKGLEWVAVIWYDESNKYYPDSVKGRFTISRDNSKNTLYLQMNSLRAEDTAVYYCARGGSSWYPDSFDIWGQGTMVTVSSASTKGPSVFPLAPCSRSTSESTAALGCLVKDYFPEPVTVSWNSGALTSGVHTFPAVLQSSGLYSLSSVVTVPSSNFGTQTYTCNVDHKPSNTKVDKTVERKSCVECPPCPAPPVAGPSVFLFPPKPKDTLMISRTPEVTCVVVDVSHEDPEVKFNWYVDGVEVHNAKTKPREEQYNSTYRVVSVLTVLHQDWLNGKEYKCKVSNKALPSSIEKTISKAKGQPREPQVYTLPPSREEMTKNQVSLTCLVKGFYPSDIAVEWESNGQPENNYKTTPPVLDSDGSFFLYSKLTVDKSRWQQGNVFSCSVMHEALHNHYTQKSLSLSPG light: not shown	9.94	1.27	0.87	99	–	–
CD73.10-IgG2-C219S (antibody, also called CD73.10-IgG2CS; CD73.10-IgG2S) heavy: QVQLVESGGGVVQPGRSLRLSCAASGFTFSNYGMHWVRQAPGKGLEWVAVIWYDESNKYYPDSVKGRFTISRDNSKNTLYLQMNSLRAEDTAVYYCARGGSSWYPDSFDIWGQGTMVTVSSASTKGPSVFPLAPCSRSTSESTAALGCLVKDYFPEPVTVSWNSGALTSGVHTFPAVLQSSGLYSLSSVVTVPSSNFGTQTYTCNVDHKPSNTKVDKTVERKSCVECPPCPAPPVAGPSVFLFPPKPKDTLMISRTPEVTCVVVDVSHEDPEVQFNWYVDGVEVHNAKTKPREEQFNSTFRVVSVLTVVHQDWLNGKEYKCKVSNKGLPAPIEKTISKTKGQPREPQVYTLPPSREEMTKNQVSLTCLVKGFYPSDIAVEWESNGQPENNYKTTPPMLDSDGSFFLYSKLTVDKSRWQQGNVFSCSVMHEALHNHYTQKSLSLSPG light: not shown	8.78	1.24	0.67	99	~10	~5
